The results in this text go back to patent publication US20220049236A1.

Experiment [1] has as its target HSP70 (UniProt P0DMV8). Kind of experiment: ELISA, plate coated with HSP70.
Experiment [2] addresses HSP70 (UniProt P0DMV8). Briefly: ELISA, plate coated with HSP70, bound protein detected with peroxidase-conjugated anti-human antibody.

HSP70, sequence (P0DMV8 whole entry): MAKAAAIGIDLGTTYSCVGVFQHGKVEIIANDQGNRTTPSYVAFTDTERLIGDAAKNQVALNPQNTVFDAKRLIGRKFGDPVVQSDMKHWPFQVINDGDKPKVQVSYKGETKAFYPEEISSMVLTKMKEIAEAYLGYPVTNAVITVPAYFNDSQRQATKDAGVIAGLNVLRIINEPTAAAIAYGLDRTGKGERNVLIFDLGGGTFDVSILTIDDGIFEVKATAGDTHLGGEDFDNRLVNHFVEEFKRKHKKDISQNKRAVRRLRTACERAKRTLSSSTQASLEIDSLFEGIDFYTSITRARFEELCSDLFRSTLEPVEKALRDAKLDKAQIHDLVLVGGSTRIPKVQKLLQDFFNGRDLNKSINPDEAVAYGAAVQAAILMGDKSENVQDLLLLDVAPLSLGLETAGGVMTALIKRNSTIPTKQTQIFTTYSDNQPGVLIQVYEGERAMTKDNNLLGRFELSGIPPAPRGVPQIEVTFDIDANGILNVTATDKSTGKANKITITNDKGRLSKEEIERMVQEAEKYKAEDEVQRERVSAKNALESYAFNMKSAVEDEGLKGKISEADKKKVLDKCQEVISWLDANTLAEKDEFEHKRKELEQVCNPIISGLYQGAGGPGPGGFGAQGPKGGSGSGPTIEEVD

B1: Fc-LPD N346, 362, 409Q (Fc fusion)
chain: APPAAGQQQPPREPPAAPGAWRQQIQWENNGQVFSLLSLGSQYQPQRRRDPGAAVPGAAQASAQQPRTPILLIRDQRTAAARTRTAGSSGVTAGRPRPTARHWFQAGYSTSRAREAGASRAEQQTAPGEVPALSNLRPPSRVDGMVGD
In the case of B1, the figures for the 50% effective concentration (EC50) in experiment [1] and in experiment [2] were 41 nM and 57 nM, respectively.

The term EC50 denotes the concentration that produces a half-maximal response. Low readings indicate higher potency in that assay, high ones lower potency in that assay.
